According to US5639663, “Bifunctional genetic markers” (National Research Council of Canada, dated 1997):

Molecular target: beta-glucuronidase (GUS), unfused, expressed from pGK1 (E. coli, UniProt P05804)
Test: molecular sieve chromatography (Superose 6) of E. coli extract co-expressing unfused GUS and NPT-II; enzyme activities of the fractions

B1: neomycin phosphotransferase-II (NPT-II), unfused, expressed from pGS39 (enzyme)
chain: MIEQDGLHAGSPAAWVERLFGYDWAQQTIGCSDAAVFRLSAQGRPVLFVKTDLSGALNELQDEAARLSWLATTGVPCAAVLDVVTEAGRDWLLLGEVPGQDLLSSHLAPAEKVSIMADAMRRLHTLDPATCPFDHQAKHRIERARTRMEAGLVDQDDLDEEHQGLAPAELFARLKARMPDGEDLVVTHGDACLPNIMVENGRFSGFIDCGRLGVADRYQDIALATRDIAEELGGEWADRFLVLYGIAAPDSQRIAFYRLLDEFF
- binding result: no binding
